From patent US20190359687A1 (Bayer, published 2019)

Assays:
[1] = target: T1, human glycophorin A on human red blood cells (human, UniProt P02724 20-150); experiment: partition to human RBC, human HemA plasma, 30 min
T1 construct: whole, on cells; also called human GPA; huGPA
T1 sequence (looked up): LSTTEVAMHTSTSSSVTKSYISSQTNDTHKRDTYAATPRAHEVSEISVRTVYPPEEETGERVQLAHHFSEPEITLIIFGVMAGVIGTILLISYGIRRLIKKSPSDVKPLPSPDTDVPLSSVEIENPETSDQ
Method: (§1) The supernatant containing plasma, platelets and white blood cells was discarded and the red blood cell pellet was resuspended in 10 pellet volumes of PBS (50 mM Phosphate buffer, pH7.4, 150 mM NaCl). The red blood cells were then pelleted by slow speed centrifugation and the red blood cells re-suspended in 10 volumes of PBS. This washing step was repeated 4 more times and the red blood cells finally resuspended in a volume of plasma from Hemophilia patients with less than 1% of normal levels of FVIII (GeorgeKing Bio-Medical, Overland Park, Kans.) to generate a total volume equal to the initial blood volume such that the RBC density was equal to that of normal whole blood. BDD and RBC targeted FVIII molecules were then spiked into RBC suspension in HemA plasma at 1 IU/mL, and incubated at room temperature for 2-3 hours with gentle rotation. […] An additional control was performed in which BDD or RBC targeted FVIII molecules were added at 11U/ml into the same human hemophilia A plasma and incubated for 5 minutes and 180 mins. These samples were used to determine the input FVIII activity in the presence of plasma which was used to calculate the percentage of the molecule that was bound to RBC. All plasma samples were then assayed together for FVIII activity using the Coatest SP assay (DiaPharma, Columbus, Ohio). The assay was performed following the manufacturer's instructions in a 96-well plate format. […] The plate was incubated at 37° C. for 10 minutes with shaking between each reagent addition. […] The amount of FVIII activity in the plasma reflects the amount of unbound FVIII. The FVIII activity of the same molecule spiked in to Hemophilia A plasma alone (no RBC) and incubated for 5 minutes was normalized to 100%.

[2] = target: T1, human glycophorin A on human red blood …; experiment: partition to human RBC, human HemA plasma, 1 min
[3] = target: T1, human glycophorin A on human red blood …; experiment: partition to human RBC, human HemA plasma, 15 min
Method: as §1

[4] = target: T1, human glycophorin A on human red blood …; experiment: partition to human RBC, human HemA plasma, 5 min
Method: as §1

[5] = target: T1, human glycophorin A on human red blood …; experiment: partition to human RBC, human HemA plasma, 120 min
[6] = target: T1, human glycophorin A on human red blood …; experiment: partition to human RBC, human HemA plasma, 60 min
Method: as §1

[7] = target: T1, human glycophorin A on human red blood …; experiment: partition to human RBC, vWF deficient plasma, 30 min
[8] = target: T2, Cynomolgus monkey glycophorin A on Cynomolgus monkey red blood cells (Cynomolgus monkey); experiment: partition to Cyno RBC, human HemA plasma, 15 min;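 note: FVIII fusion spiked at 1 IU/mL into RBC suspension at whole-blood density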
T2 construct: whole, on cells; also called Cyno GPA; Cyno RBC

[9] = target: T1, human glycophorin A on human red blood …; experiment: partition to human RBC, human HemA plasma, 120 min; remark: listed apart in the source
Method: as §1

[10] = target: T2, Cynomolgus monkey glycophorin A on …; experiment: partition to Cyno RBC, human HemA plasma, 1 min;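 note: FVIII fusion spiked at 1 IU/mL into RBC suspension at whole-blood density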
[11] = target: T2, Cynomolgus monkey glycophorin A on …; experiment: partition to Cyno RBC, human HemA plasma, 120 min;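 note: FVIII fusion spiked at 1 IU/mL into RBC suspension at whole-blood density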
Method: To evaluate partition to cynomolgus monkey or human red blood cells, whole blood was draw from Cynomolgus monkey or normal human volunteers in to anticoagulant with 4% sodium citrate (Sigma, St Louis, Mo.). The red blood cells were purified by layering the whole blood on to ficoll followed by low speed centrifugation. The supernatant containing plasma, platelets and white blood cells was discarded and the red blood cell pellet was resuspended in 10 pellet volumes of PBS (50 mM Phosphate buffer, pH7.4, 150 mM NaCl). The red blood cells were then pelleted by slow speed centrifugation and the red blood cells re-suspended in 10 volumes of PBS. This washing step was repeated 4 more times and the red blood cells finally resuspended in a volume of plasma from Hemophilia patients with less than 1% of normal levels of FVIII (GeorgeKing Bio-Medical, Overland Park, Kans.) to generate a total volume equal to the initial blood volume such that the RBC density was equal to that of normal whole blood. BDD and RBC targeted FVIII molecules were then spiked into RBC suspension in HemA plasma at 1 IU/mL, and incubated at room temperature for 2-3 hours with gentle rotation. […] An additional control was performed in which BDD or RBC targeted FVIII molecules were added at 11U/ml into the same human hemophilia A plasma and incubated for 5 minutes and 180 mins. These samples were used to determine the input FVIII activity in the presence of plasma which was used to calculate the percentage of the molecule that was bound to RBC. All plasma samples were then assayed together for FVIII activity using the Coatest SP assay (DiaPharma, Columbus, Ohio). The assay was performed following the manufacturer's instructions in a 96-well plate format. […] The plate was incubated at 37° C. for 10 minutes with shaking between each reagent addition.

[12] = target: T1, human glycophorin A on human red blood …; experiment: partition to human RBC, vWF deficient plasma, 120 min
[13] = target: T2, Cynomolgus monkey glycophorin A on …; experiment: partition to Cyno RBC, human HemA plasma, 60 min;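 note: FVIII fusion spiked at 1 IU/mL into RBC suspension at whole-blood density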
[14] = target: T1, human glycophorin A on human red blood …; experiment: partition to human RBC, vWF deficient plasma, 60 min
[15] = target: T1, human glycophorin A on human red blood …; experiment: partition to human RBC, vWF deficient plasma, 1 min
[16] = target: T2, Cynomolgus monkey glycophorin A on …; experiment: partition to Cyno RBC, human HemA plasma, 30 min;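 note: FVIII fusion spiked at 1 IU/mL into RBC suspension at whole-blood density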
[17] = target: T1, human glycophorin A on human red blood …; experiment: partition to human RBC, vWF deficient plasma, 5 min
[18] = target: T1, human glycophorin A on human red blood …; experiment: partition to human RBC, vWF deficient plasma, 15 min
[19] = target: T2, Cynomolgus monkey glycophorin A on …; experiment: partition to Cyno RBC, human HemA plasma, 5 min;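 note: FVIII fusion spiked at 1 IU/mL into RBC suspension at whole-blood density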
[20] = target: T3, glycophorin A peptide GP5 (human, biotin at the N-terminus); experiment: Octet, GP5 peptide on the probe, fusion protein in solution, 1:1 fit
T3 construct: Residues 42 to 61 of the human glycophorin A extracellular domain
T3 peptide: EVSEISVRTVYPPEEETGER

B1: B-domain deleted FVIII (other, human, UniProt P00451 20-2351, looked up)
chain: ATRRYYLGAVELSWDYMQSDLGELPVDARFPPRVPKSFPFNTSVVYKKTLFVEFTDHLFNIAKPRPPWMGLLGPTIQAEVYDTVVITLKNMASHPVSLHAVGVSYWKASEGAEYDDQTSQREKEDDKVFPGGSHTYVWQVLKENGPMASDPLCLTYSYLSHVDLVKDLNSGLIGALLVCREGSLAKEKTQTLHKFILLFAVFDEGKSWHSETKNSLMQDRDAASARAWPKMHTVNGYVNRSLPGLIGCHRKSVYWHVIGMGTTPEVHSIFLEGHTFLVRNHRQASLEISPITFLTAQTLLMDLGQFLLFCHISSHQHDGMEAYVKVDSCPEEPQLRMKNNEEAEDYDDDLTDSEMDVVRFDDDNSPSFIQIRSVAKKHPKTWVHYIAAEEEDWDYAPLVLAPDDRSYKSQYLNNGPQRIGRKYKKVRFMAYTDETFKTREAIQHESGILGPLLYGEVGDTLLIIFKNQASRPYNIYPHGITDVRPLYSRRLPKGVKHLKDFPILPGEIFKYKWTVTVEDGPTKSDPRCLTRYYSSFVNMERDLASGLIGPLLICYKESVDQRGNQIMSDKRNVILFSVFDENRSWYLTENIQRFLPNPAGVQLEDPEFQASNIMHSINGYVFDSLQLSVCLHEVAYWYILSIGAQTDFLSVFFSGYTFKHKMVYEDTLTLFPFSGETVFMSMENPGLWILGCHNSDFRNRGMTALLKVSSCDKNTGDYYEDSYEDISAYLLSKNNAIEPRSFSQNPPVLKRHQREITRTTLQSDQEEIDYDDTISVEMKKEDFDIYDEDENQSPRSFQKKTRHYFIAAVERLWDYGMSSSPHVLRNRAQSGSVPQFKKVVFQEFTDGSFTQPLYRGELNEHLGLLGPYIRAEVEDNIMVTFRNQASRPYSFYSSLISYEEDQRQGAEPRKNFVKPNETKTYFWKVQHHMAPTKDEFDCKAWAYFSDVDLEKDVHSGLIGPLLVCHTNTLNPAHGRQVTVQEFALFFTIFDETKSWYFTENMERNCRAPCNIQMEDPTFKENYRFHAINGYIMDTLPGLVMAQDQRIRWYLLSMGSNENIHSIHFSGHVFTVRKKEEYKMALYNLYPGVFETVEMLPSKAGIWRVECLIGEHLHAGMSTLFLVYSNKCQTPLGMASGHIRDFQITASGQYGQWAPKLARLHYSGSINAWSTKEPFSWIKVDLLAPMIIHGIKTQGARQKFSSLYISQFIIMYSLDGKKWQTYRGNSTGTLMVFFGNVDSSGIKHNIFNPPIIARYIRLHPTHYSIRSTLRMELMGCDLNSCSMPLGMESKAISDAQITASSYFTNMFATWSPSKARLHLQGRSNAWRPQVNNPKEWLQVDFQKTMKVTGVTTQGVKSLLTSMYVKEFLISSSQDGHQWTLFFQNGKVKVFQGNQDSFTPVVNSLDPPLLTRYLRIHPQSWVHQIALRMEVLGCEAQDLY
notes: Untargeted control without scFv; also called BDD-FVIII; BDD
percentage bound to human RBC [1]: 0%
percentage bound to human RBC [2]: 0%
percentage bound to human RBC [3]: 4%
percentage bound to human RBC [4]: 2%
percentage bound to human RBC [5]: 0%
percentage bound to human RBC [6]: 2%

B2: TPP-8743 FVIII-scFv fusion protein (other)
chain: ATRRYYLGAVELSWDYMQSDLGELPVDARFPPRVPKSFPFNTSVVYKKTLFVEFTDHLFNIAKPRPPWMGLLGPTIQAEVYDTVVITLKNMASHPVSLHAVGVSYWKASEGAEYDDQTSQREKEDDKVFPGGSHTYVWQVLKENGPMASDPLCLTYSYLSHVDLVKDLNSGLIGALLVCREGSLAKEKTQTLHKFILLFAVFDEGKSWHSETKNSLMQDRDAASARAWPKMHTVNGYVNRSLPGLIGCHRKSVYWHVIGMGTTPEVHSIFLEGHTFLVRNHRQASLEISPITFLTAQTLLMDLGQFLLFCHISSHQHDGMEAYVKVDSCPEEPQLRMKNNEEAEDYDDDLTDSEMDVVRFDDDNSPSFIQIRSVAKKHPKTWVHYIAAEEEDWDYAPLVLAPDDRSYKSQYLNNGPQRIGRKYKKVRFMAYTDETFKTREAIQHESGILGPLLYGEVGDTLLIIFKNQASRPYNIYPHGITDVRPLYSRRLPKGVKHLKDFPILPGEIFKYKWTVTVEDGPTKSDPRCLTRYYSSFVNMERDLASGLIGPLLICYKESVDQRGNQIMSDKRNVILFSVFDENRSWYLTENIQRFLPNPAGVQLEDPEFQASNIMHSINGYVFDSLQLSVCLHEVAYWYILSIGAQTDFLSVFFSGYTFKHKMVYEDTLTLFPFSGETVFMSMENPGLWILGCHNSDFRNRGMTALLKVSSCDKNTGDYYEDSYEDISAYLLSKNNAIEPRSFSQNGGGGSTGGTGGSSGGGTGSGGGGTGGSGGTDIQLTQSPSFLSASVGDRVTITCRASSSVRYIYWFQQKPGKAPKLLIYATSFRQSGVPSRFSGSGSGTEYTLTISSLQPEDFATYYCHQRNSFPYTFGQGTKLEIKGGGGSGGGGSGGGGSGGGGSEVQLVQSGAEVKKPGASVKVSCKASGYTFTTYAIHWVRQAPGQGLEWMGYINPSSGYTRYNPKFKGRVTMTRDKSTSTAYMELRSLRSDDTAVYYCWTGTRDYWGQGTTVTVSSGGGGSQNPPVLKRHQREITDENQSPRSFQKKTRHYFIAAVERLWDYGMSSSPHVLRNRAQSGSVPQFKKVVFQEFTDGSFTQPLYRGELNEHLGLLGPYIRAEVEDNIMVTFRNQASRPYSFYSSLISYEEDQRQGAEPRKNFVKPNETKTYFWKVQHHMAPTKDEFDCKAWAYFSDVDLEKDVHSGLIGPLLVCHTNTLNPAHGRQVTVQEFALFFTIFDETKSWYFTENMERNCRAPCNIQMEDPTFKENYRFHAINGYIMDTLPGLVMAQDQRIRWYLLSMGSNENIHSIHFSGHVFTVRKKEEYKMALYNLYPGVFETVEMLPSKAGIWRVECLIGEHLHAGMSTLFLVYSNKCQTPLGMASGHIRDFQITASGQYGQWAPKLARLHYSGSINAWSTKEPFSWIKVDLLAPMIIHGIKTQGARQKFSSLYISQFIIMYSLDGKKWQTYRGNSTGTLMVFFGNVDSSGIKHNIFNPPIIARYIRLHPTHYSIRSTLRMELMGCDLNSCSMPLGMESKAISDAQITASSYFTNMFATWSPSKARLHLQGRSNAWRPQVNNPKEWLQVDFQKTMKVTGVTTQGVKSLLTSMYVKEFLISSSQDGHQWTLFFQNGKVKVFQGNQDSFTPVVNSLDPPLLTRYLRIHPQSWVHQIALRMEVLGCEAQDLY
notes: The entry is the mature protein without signal peptide; most of the material is cut at the furin site into two chains; also called PPB 6723
percentage bound to human RBC [7]: 79.4%
% bound to Cyno RBC [8]: 65.7%
percentage bound to human RBC [9]: 76.4%
% bound to Cyno RBC [10]: 17.4%
% bound to Cyno RBC [11]: 79%
percentage bound to human RBC [12]: 79.6%
% bound to Cyno RBC [13]: 78.5%
percentage bound to human RBC [14]: 78.8%
percentage bound to human RBC [15]: 45.9%
% bound to Cyno RBC [16]: 73%
percentage bound to human RBC [17]: 69.5%
percentage bound to human RBC [18]: 78%
% bound to Cyno RBC [19]: 53%
Kd [20]: 4.89 nM
koff [20]: 0.0027 s⁻¹
kon [20]: 525000 M⁻¹ s⁻¹
